We go through one substance from patent US6730296B1.

The target of the test is fusin/CXCR4 receptor (human) (UniProt P61073).

Regarding “purified human SDF-1β chemokine, prepared in E. coli and containing an N-terminal methionine residue (from UniProt P48061) (ligand)”, the anti-fusin antibody staining of Jurkat cells after 3-hour incubation at 37 degrees C, Median Channel (Median Channel) was 22.3.
